# According to the nanobody polyreactivity screen of Harvey et al. (2022):
# Assay: yeast display, Sf9 membrane polyspecificity reagent, FACS + sequencing; frameworks hold sequencing errors
# Outline: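 A nanobody's polyreactivity label depends on the gate it was sorted from. Yeast display cells were stained with 10% biotinylated, detergent-solubilized Sf9 membrane reagent for 1 hour at 4 °C, enriched on streptavidin microbeads and sorted by FACS. The low and high (top ~1%) gates were set on anti-HA fluorescence for expression and streptavidin fluorescence for reagent binding.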
row,Sequence,polyreactivity (PSR sort gate)
1,QVQLVESGGGLVQAGGSLRLSCAASGRIFDGNTMGWYIPAPGKERELVAAISGGGSTDYADSVKGRFTISRDNAKNTVYLQMNSLKPEDTAVYYCAATTGPVPLKGDYWGQGTQVTVSS,low polyreactivity
2,QVQLVESGGGLVQAGGSLSLSCAASGRITRFNAMGWYRQAPGKERELVAAITRGASTYYADSVKGRFTISRDNAKNSVYLQMNRLKQEDTAVYYCAAAPRYSWTSVARYDYWGQGTQVTVSS,high polyreactivity
3,QVQLVESGGGLVQAGGSLRLSCDASGSISVVNMGWYRQAPGKERELVASNTSSGSTTYADSVKGRFTISRDKAKNTVYLQMNRLKPEDTAVYYCAADVGTDYTYQHPAGAAYDYCGQGTQVTVSS,low polyreactivity
4,QVQLVESGGGLVQAGGSLRLSCAASGSTLVDYAMGWYRQAPGKERELVAAISASGGTTYYADSVKGRFTISRDNAKNTVYLQMNSLKPEDTAVYYCAKYHYYYFPYDYWGQGTQVTVSS,low polyreactivity
5,QVQLGESGGGLVQAGGSLRLSCAASGRIFNVNVMGWYRQAPGKDMELVAAITSGGSTNYADSVKGRFTISRDNAKNTVYLQMNSLKPEDTAVYYCAKDYQYGFGEYPYDYWGQGTQVTVSS,low polyreactivity
6,QVHLVESGGGLVQAAGSLRLSCAASGRTFPYNAKGWYRQAPGKERELVAAISSGGSTNYADSVKGRFTISRDNAKNTVYLQMNSLKPEDTAVYYCATKYQRRPYRYYYWGQGTQVTVSS,low polyreactivity
7,QVQLVESGGGLVQAGGSLRLSCAASGYIFPWYDMGWYRQAPGKERELVAAISWSGGSTYSADSVKGRFTISRDNAKNTVDLQMNSLKPEDTAVYYCAAYLSHYATRYGYWGHGTQVTVSS,high polyreactivity
8,QVQLVESGGGLVQAGGSLRLSCAASGRIFVGNAMGWYRQAPGKERELVAAISRSGGRTYYADSVKGRFTISRDNAKNTVYLQMNSLKPEDTAVYYCYTRVYAGKYDYWGQGTQVTVSS,high polyreactivity
9,QVQLVESGGGLVQAGGSLRLSCAASGYIFGGNAMGSYRPAPGNPRELVAAISSSSGGTYYADSVKGRFTISRDNAKNTVYLQMNSLKPEDTAVYYCAAAPVDYEYDYWGQGTQVTVSS,low polyreactivity
10,QVQLVESGGGLVQAGGSLRLSCAASGRTFGVYAMGWNRQPPGKERELVATITSVDRTTYADSVKGRFTFSRDNAKITVYLQMNSLKPEDTAVYYCAAVGRWPRYYYWGQGTQVTVSS,high polyreactivity
11,QVQLVESGGGLVQAGGSLRLSCAASGIIFDGYAMGWYRQAPGKEREFVAVISSSGGTTYYADSVKGRFTISRDNAKNTVYLQMNSLKPEDTAVYYCATLRYSPGWYTRDDYWGQGTQVTVSS,low polyreactivity
12,QVQLVESGGGLDQAGGSLRLSCAASGLILRRYDMGWYRQAPGKERELVAAISGSGGRTYYADSVKGRFTISRDNAKNTVYLQMNSLKPEDTAVYYCAAEYSYYYDQYSYDYWGQGTQVTVSS,high polyreactivity
13,QVQLVESGGGLVQAGGSLRLSCAASGSTFGIYSMGWYRQAPGKERELVAAISVRGGRTYYADSVKGRFTISRDNAKNTVYLQMNSLKPEDTAVYYCAPTWYWGNDYWGQGTQVTVSS,low polyreactivity
14,QVQLVESGGGLVQAGGSLRLSCAASGSTFYTYAMGWYRQAPGKEMELVAAIRSAGSTYYADSVKGRFTISRDNAKNTVYLQMNSLKPEDTAVYYCNTVARSSVGYEYWGQGTQVTVSS,high polyreactivity
15,QVQHVESGGGLGQAGGSLRLSCAASGRTFDGNVKGWYIQAPGKERELVAAMTASGARTYYADSVKRRFTISRDNAKNTVYLQMNSLKPEDTAVYYCAAVCRRVSAWYYYWGQGTQVTVSS,high polyreactivity
16,QVQLVETGGGLVQAGGSLRLSCAASGSIFLYYAMGWYRQAHGKERELVAAITSGGSTNYADSVKGRFTISRDNAKNTVYLQMNSLKPEDTAVYYCAARHPYRFWGQGTKVTVSS,high polyreactivity
17,QVQLVESGGGLVQAGGSLRLSCAASGSIFRSYAMGWYRQAPGKERELVAAITSRGSSTYYADSVTGRFTISRDNAKNTVYLQMNSLKPEDSAVYYCATVFPYSARDGLDYWGQGTQVTVSS,high polyreactivity
18,QGQLVESGGGLVQAGGSLRLSCAASGSIFYWYAMGWYRQAPGKERELVAVISTGTSTKYADSVKGRFTISRDNAKNTVYLQMNSLKPEDTAVYYCNADPVGPKYDYWGQGTQVTVSS,low polyreactivity
19,QVQLVESGGGLVQAGGSLRLSCASSGYIFGRYAMGWYRQAPGKERELVAAISSTGDSTYYADSVKGRITISRDNAKNTVYLQMNSLKPEDTAVYYCNAVVPRYSYGRYYYWGQCTQVTVSS,high polyreactivity
20,QVQLVESGGGLVQAGGSLRLSCAASGSTFWYNGMGWYRQAPGKERELVAAINWSGDSTYYADSVKGRFTISRDNAKNTVYLQMNSLKPEDTAVFYCAGGYYTYSRRSSFFVAYGYWGLGTQVTVSS,low polyreactivity
21,QDHLVESGGGLVQAGGSLRLSCAASGSISWKNAMGWYRQAPGKERELVAAISSTVTYYADSVKGRFTISRDNAKNTVYLQMNSLKPEDTAVYYCAAVYLGYTTLYTGDYCGQGTQVTVSS,low polyreactivity
22,QVQLVESAGVLVQAGGSLRFSCAPSGIIFPQYAMGWYRQAPGKARELVAAITYSGDGTYYADSVKGRFTISRDNAKYTVYLLMYSLKPDDTAVYYCAAFPRDPYKEYDYWGQGTQLTVSS,low polyreactivity

row,Sequence,polyreactivity (PSR sort gate)
1,QVQLVESGGGLVQAGGSLRLSCAASGFIFFEYAMGWYRQAPGKERELVAAISWSDDTTYYADSVKGRFTISRDNAKNTVYLQMNSLKPEDTAVYYCAAEKVSGQGEMDYWGQGTQVTVSS,low polyreactivity
2,QVQLVESGGGLVQAGGSIRLSCAASGRTFKKYAMGWYRQAPGKERELVAAITGSGGSTYYADSVKGRFTISRDNAKNTVYLQINSLKPEDTAVYYCAAYAYGVGHSQDGGNYWGQGNQVTVSS,low polyreactivity
3,QVQLVESGGGLVQAGGSLRLSCAASGRIFSHNVMGWYRQAPGKERELVAAISWSSGSTYYADSVKGRFTISRDNAKNTVYLQMNSLKPEDTAVYYCNAATRPTGDYWGQGTQVTVSS,low polyreactivity
4,QVQLVESGGGLVQAGGSLRLSCAASGFTFYDNAMGWYRQAPGKERELVAAINWRSGSTYYADSVKGRFTISRDNAKNTVYLQMNSLKPEDTAVYYCAAGLVFHYYAPKSYYLGYDYWGQGTQVTVSS,low polyreactivity
5,QVQLVESGGGLVQAGGSLRLSCAASGSIFGRNTMGWYRQAPGKERELVAAISSRGTSTYYADSVKGRFTISRDNAKNTVYLQMNSLKPEDTAVYYCAARVYPYNYWGQGTQVTVSS,high polyreactivity
6,QVQLVESGGGLVQAGGSLRLSCAASGRIFRYYAMGWYRQAPGKESELVAAINSGGSTKYADSVKGRFTISRDNAKNTVYLQMNSLKPEDTAVYYCNKDHAFSRYWYGGFDYWGQGTQVTVSS,high polyreactivity
7,QVHLVESGGGLVQAGGSLRLSCAASGLTFYWYVMGWYRQAPGKERELVAVITGSGGSTYYADSVKGRFTISRDNAKNTVYLQMNSLKPEDTAAYYCARGGRYNRYYYWGQGTQVTVSS,high polyreactivity
8,LLQLQESGGVLVQAGCRLRLICAASGSISVTRAMCWYSQAPGKERELVASTTGGSNNADSVNGRFTISRDNAKTTVYLQMNSLKPEDTAVYYCATEYYGPVYDLDYDYCGQGTQVTVSS,low polyreactivity
9,QVQLVESGGGLVQAGGSLRLSCAASGFTFDTNVRGWYRQAPGKERELVAAITGPGGSTYYADSVKGRFTISRDNAKNTVYLQMNSLNPEDTAVYYCNRVYYRRRLYDYWGQGTQVTVSS,high polyreactivity
10,QVQLVESGGGLVQAGGSLRLSCAASGRIFSNYAMGWYRQAPGKERELVAAITRSGGSTYYADSVKGRFTISRDNAKNTVYLQMNSLKPEDTAVYYCNTAYRRRYTYDYWGQGTQVTVSS,high polyreactivity
11,QVQLVESGGGLVQAGGSLRLSCAASGSTFDKYAMGWYRQAPGKERELVAVISGSGGRTYYADSVKGRFTISRDNAKNTVYLQMNSLKPEDTAVYYCAARGSFKKGYWGQGTQVTVSS,high polyreactivity
12,QVHLVESGGGLVQAGGSLRLSCADSGRIFYQYAMGWYRQQPGKESELVARITSGGGTNYADSVKGRFSISRDNAKYTVYLQMNSLKPEDTAVYYCAAGPWYYSYPDYYWGQGTQVTVSS,high polyreactivity
13,QVQLVESGGGLVQAGGSLRFSCAASGFTFPYYAMGWYRQAPGKERELVAAITGRGGSSYYADSVKGRFTISRDNAKNTVYLQMNSLKPEDTAVYYCAARRSSRSKRLNYWGQGTQVTVSS,high polyreactivity
14,QVQLVESGGGLVQAGGSLRLSCAASGRILYSYAMGWYRQAPGKEREFVADIRRSGGSTYYADSVKGRFTISRDNAKNTVYLQMNSLKPEDTAVYYCAKSQSAKGGYDYWGQGTQVTVSS,high polyreactivity
15,QVQLVESGGGLVQAGGSLRLSCAASGGIFKYNAMGWYRQAPGKERELVAAIDTSGGSTYYADSVKGRFTISRDNAKNTVYLQMNSLKPEDTAVYYCAAELGLAQYYYWGQGTQVTVSS,low polyreactivity
16,QVQLVESGGGLVQAGGSLRLSCAASGSIFLDYAMGWYRQAPGKERELVAGITISGGSTYYADSVKGRFTISRDNAKNTVYLQMNSLKPEDTAVYYCAKVAPRSSSSQEYYYWGQGTQVTVSS,low polyreactivity
17,QVQLVESGGGLVQAGGSLRLSCAASGITFYYNTMGWYRQAPGKERELVAAISSRSGSTYYADSVKGRFTISRDKAKNNVSLQMNCLKPEDTAVYYCAARRAAKYYWGQGTQVTVSS,high polyreactivity
18,QVQLVESGGGLVQAGGSLRLSCAASGSIFVLYAMGWSRQAPGKERELVAAITTGGGTNYADSVKGRFTISRDNAKNTVYLQMNSLKPEDTAVYYCAAADSTWFDWGNYWYYYWGQGTQVTVSS,low polyreactivity
19,QVQLVESGGGLVQAGGSLRLSCAASGSTFVVNAMGWYRQAPGKERELVAAITQSGGSTFYADSVKGRFTISRDNAKNTVYLQMNSLKPEETAVYYWGHGTQVTVSS,low polyreactivity
20,QVQLVESGGGLVQAGGSLRLSCAASGFTFQRYAKGWYRQAPGKERDLVAAITRNGGSTYYADSVKGRFTISRDNAKNTVYLQMNSLKPDDTAVYYCNAEWFQFYWYPHYKVTRYEYWGQVTQVTVSS,high polyreactivity
21,QVQLGESGGGLVQAGGSLRLSCAASGRTFILNAMGWYRQAPGKERELVAAISWSGGSTYYADSVKGRFTISRDNAKNTVYLQMNSLKPEDTAVYYCAAVTYAYLFHTYDYWGQGTQVTVSS,low polyreactivity
